Measurements: US20230140200A1, “COMPOSITIONS AND METHODS FOR DETECTING CELLS UNDERGOING FERROPTOSIS USING AN ANTIBODY” (THE TRUSTEES OF COLUMBIA UNIVERSITY IN THE CITY OF NEW YORK, priority 2020, published 2023)

What was measured:
HT-1080 cells = assay: Immunofluorescence staining of treated cells, quantification of membrane intensity; type: cell-based, human
[1] = target: T1, transferrin receptor protein 1 (Homo sapiens, UniProt P02786); assay: Immunoprecipitation-mass spectrometry antigen identification; type: binding; settings: HT-1080 cell lysate, IP-MS
T1 construct: endogenous in cells; host or cells: HT-1080
T1 sequence (P02786 whole entry): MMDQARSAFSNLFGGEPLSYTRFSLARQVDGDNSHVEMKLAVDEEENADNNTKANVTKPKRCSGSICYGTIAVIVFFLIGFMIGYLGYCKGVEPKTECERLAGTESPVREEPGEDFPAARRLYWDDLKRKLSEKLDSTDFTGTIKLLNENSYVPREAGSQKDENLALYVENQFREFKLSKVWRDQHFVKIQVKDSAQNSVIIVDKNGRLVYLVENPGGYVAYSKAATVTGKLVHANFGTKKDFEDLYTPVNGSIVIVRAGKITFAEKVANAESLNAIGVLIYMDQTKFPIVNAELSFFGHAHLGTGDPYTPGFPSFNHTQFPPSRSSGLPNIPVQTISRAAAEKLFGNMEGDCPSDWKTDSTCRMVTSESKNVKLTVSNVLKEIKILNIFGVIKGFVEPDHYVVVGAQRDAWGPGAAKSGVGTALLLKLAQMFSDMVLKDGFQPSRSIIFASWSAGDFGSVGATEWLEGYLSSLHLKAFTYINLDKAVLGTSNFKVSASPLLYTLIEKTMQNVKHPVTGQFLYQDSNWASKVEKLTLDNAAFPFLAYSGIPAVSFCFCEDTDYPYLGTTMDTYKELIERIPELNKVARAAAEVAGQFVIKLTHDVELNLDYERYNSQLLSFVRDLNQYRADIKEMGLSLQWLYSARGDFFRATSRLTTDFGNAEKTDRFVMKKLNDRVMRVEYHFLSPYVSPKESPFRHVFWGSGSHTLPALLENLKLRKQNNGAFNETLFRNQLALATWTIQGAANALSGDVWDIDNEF
Protocol: HT-1080 cells were seeded in DMEM (Corning 10-013-CM) and 10% Hi-FBS with 1% penicillin and streptomycin (PS) with 1% MEM Non-Essential Amino Acids Solution (100×) (Thermo Fisher Scientific 11140-076) 16 h prior to use. DMSO or 1 μM of RSL3 was added and incubated for 4 h. Following treatment, the medium was aspirated from each dish and cells were washed twice with PBS. Cells were lysed with 70 μl lysis buffer (RIPA buffer from ThermoFisher, cat. 89900, 1 mM EDTA, 1 mM PMSF, 1× Halt™ protease inhibitor cocktail from ThermoFisher, cat. 78430 and 1× Halt™ phosphatase inhibitor cocktail from ThermoFisher, cat. 78426). Unlysed cells and debris were pelleted for 15 min at 16,000×g at 4° C. The samples were incubated with 10 μg of 3F3 FMA overnight at 4° C. with shaking. The next day, Thermo Scientific Pierce Protein AG Magnetic Beads (Thermo Fisher Scientific 88802) were washed with TBS with 0.05% Tween 20 (wash buffer) and then were incubated with sample/antibody mixture for 1 h with mixing. The beads were collected with a magnetic stand and then washed with wash buffer for three times. The beads were used for mass spectrometry.
Trypsin digestion was performed overnight at 37° C. […] CID fragmentation was applied with 35% collision energy and resulting fragments were detected using the rapid scan rate in the ion trap. […]
Raw mass spectrometric data were analyzed using MaxQuant v. […]

amino acid coverage of TfR1 [1]: 53%
confidence of identification of transferrin receptor protein 1 as target antigen [1]: 63%
B1: 3F3-FMA: Murine monoclonal IgG1 raised against ferroptotic membrane fractions; antigen is transferrin receptor protein 1 (TfR1) (antibody, V domains shown)
VH: EVLLQQSGTELVRPGALVKLSCKASGFNIQDLYIHWVKQRPEQGLEWIGWIDPETDNTIYDPKFQGKASITADTSSNTAYLQLSSLTSEDTAMYYCSTGLLQWYFDVWGAGTAVTVSS
VL: DIVMTQSPSSLAMSIGQKVTMRCKSSQSLLNSYNQKNCLAWYQQKPGQSPKLLLYFVSTRESGVPDRFIGSGSGTDFTLTISSVQAEDLADYFCQQHYSTPLTFGAGTKLELK
co-localization with GM130 (Golgi marker) (HT-1080 cells; 1 μM RSL3, 4 h): located in the Golgi
co-localization with Tom20 (mitochondria) and PDI (ER) markers (HT-1080 cells; 1 μM RSL3, 4 h): not visible in mitochondria or the ER
antibody staining / membrane intensity in RSL3-induced ferroptosis (HT-1080 cells; 1 μM RSL3, 4 h, vs DMSO): stained cell boundaries and the inside puncta became brighter
antibody staining on cell surface in STS-induced apoptosis (HT-1080 cells; 1 μM STS, 6 h): wasn't detected
antibody membrane intensity in camptothecin-induced apoptosis (HT-1080 cells; 2 μM camptothecin, 24 h): no significant increase
antibody membrane intensities in H2O2-treated cells (HT-1080 cells; 1 mM H2O2, 4 h): didn't observe increased membrane intensities
